Earlier results as cited in PMC11267001.
pKd: −log10 of the molar value.

Molecular target: DOCK5ΔC/ELMO1 DOCK5 1-1642 (Homo sapiens) (UniProt Q9H7D0)

In the case of RhoG (from UniProt P84095), the pKd is given as 5.00.
